These results are taken from publication PMC6837886.

Series [1] concerns the target T1, UP1 (RRM1-RRM2 fragment of hnRNP A1) (UniProt P09651 1-196). Put plainly: ITC.
Series [2] concerns the target T1, UP1 (RRM1-RRM2 fragment of hnRNP A1). Put plainly: NMR.
For series [3] the target is unchanged. Put plainly: ITC. The source holds these as a separate data set.
For series [4] the target is unchanged. Put plainly: NMR. This is another data set of the same source.
The target is the same in series [5]. Put plainly: NMR. This is another data set of the same source.

T1 sequence (P09651 1-196): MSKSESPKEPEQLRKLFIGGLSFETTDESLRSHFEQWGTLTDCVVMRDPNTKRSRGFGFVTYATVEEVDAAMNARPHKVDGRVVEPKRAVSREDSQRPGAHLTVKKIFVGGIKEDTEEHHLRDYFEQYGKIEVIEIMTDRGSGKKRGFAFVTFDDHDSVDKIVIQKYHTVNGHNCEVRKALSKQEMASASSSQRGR

GCACCACACGGGUUUUAGACAAAAUCCG (structured_RNA) [SMN2 exon 7 ESE1 hairpin]: the Kd in series [1] is 47.4 ± 19.7 µM; in series [2], 100 ± 20 µM. Consider GCACCACAGGAUCAAUAGCAGGUGUGGCACACCAGUCAUACCUUGAUCC (structured_RNA) [EV2], for which the dissociation constant Kd in series [3] amounted to 5.1 ± 1.9 µM; in series [4], 11.1 ± 5.1 µM. GCACCACACG (ssRNA) [RNA0]: binding in series [5] was characterised by a dissociation constant (Kd) of 978 ± 162 µM.

GCACCACACGGGUUUCAGACAAAAUCCG (structured_RNA) [SMN1 exon 7 ESE1 hairpin]: the equilibrium dissociation constant (Kd) in series [1] turned out to be 51.3 ± 2.5 µM; in series [5], 101 ± 29 µM.
